Measured values published in publication PMC7518877, “The prefusion structure of herpes simplex virus glycoprotein B” (Science Advances, 2020).

Biological target: the molecule itself
Assay: cryo-EM structure; electron cryo tomography and sub-volume averaging of gB H516P on purified extracellular vesicles; vesicles in 20 mM Hepes (pH 8), 150 mM NaCl; 46,067 sub-volumes, C3 symmetrised; ectodomain 9.0 Å; domains of the postfusion crystal structure fitted as rigid bodies and by MD-based flexible fitting

B1: HSV-1 glycoprotein B H516P, full-length, membrane-anchored, on extracellular vesicles (natural protein)
chain: not shown
notes: glycoprotein B (gB) of herpes simplex virus 1, full length with membrane anchor and cytoplasmic domain, gene in plasmid pEP98; Trimer embedded in the vesicle membrane; prefusion (compact) conformation; also called gB H516P; H516P gB variant; source: BHK-21 cells, transiently transfected; on extracellular vesicles harvested from the supernatant by differential centrifugation
stoichiometry N: 3
